# T1: TtPyNP (Thermus thermophilus pyrimidine nucleoside phosphorylase) (Thermus thermophilus, UniProt Q5SHF9)
# T1 construct: gene TTHA1771
# T1 sequence (Q5SHF9 1-423): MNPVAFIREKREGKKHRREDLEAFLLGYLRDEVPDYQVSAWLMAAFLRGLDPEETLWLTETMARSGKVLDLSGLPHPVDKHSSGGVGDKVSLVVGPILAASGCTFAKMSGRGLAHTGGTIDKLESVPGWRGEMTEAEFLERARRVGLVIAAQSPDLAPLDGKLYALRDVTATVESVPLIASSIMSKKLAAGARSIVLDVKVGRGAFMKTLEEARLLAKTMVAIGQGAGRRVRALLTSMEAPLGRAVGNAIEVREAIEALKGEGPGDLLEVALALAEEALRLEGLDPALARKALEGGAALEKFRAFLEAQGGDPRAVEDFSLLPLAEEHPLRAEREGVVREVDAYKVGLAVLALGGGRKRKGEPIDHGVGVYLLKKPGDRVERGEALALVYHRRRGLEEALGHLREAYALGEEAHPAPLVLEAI
# Assays:
# [1] = molecular target: T1, TtPyNP (Thermus thermophilus pyrimidine nucleoside phosphorylase); details: co-substrate uridine
# [2] = substrate: O=c1ccn([C@@H]2O[C@H](CO)[C@@H](O)[C@H]2O)c(=O)[nH]1; assay: UV spectral unmixing of phosphorolysis initial rates; format: biochemical, Thermus thermophilus; details: 80 °C, pH 7, saturating phosphate, Michaelis-Menten-like only up to 1-2 mM, inhibition at higher concentration
Molecule,K M [1],Km [2] [mM],kcat [2] [s⁻¹]
O=P(O)(O)O [phosphate],saturating phosphate concentrations for which typical Michaelis–Menten behavior was observed; Figure S4,–,–
"TtPyNP (Thermus thermophilus pyrimidine nucleoside phosphorylase) (Thermus thermophilus HB8) (protein, tag not described in the main text) MNPVAFIREKREGKKHRREDLEAFLLGYLRDEVPDYQVSAWLMAAFLRGLDPEETLWLTETMARSGKVLDLSGLPHPVDKHSSGGVGDKVSLVVGPILAASGCTFAKMSGRGLAHTGGTIDKLESVPGWRGEMTEAEFLERARRVGLVIAAQSPDLAPLDGKLYALRDVTATVESVPLIASSIMSKKLAAGARSIVLDVKVGRGAFMKTLEEARLLAKTMVAIGQGAGRRVRALLTSMEAPLGRAVGNAIEVREAIEALKGEGPGDLLEVALALAEEALRLEGLDPALARKALEGGAALEKFRAFLEAQGGDPRAVEDFSLLPLAEEHPLRAEREGVVREVDAYKVGLAVLALGGGRKRKGEPIDHGVGVYLLKKPGDRVERGEALALVYHRRRGLEEALGHLREAYALGEEAHPAPLVLEAI",–,5.92 ± 8.72,624.89 ± 823.49

# Reference: PMC8247850, “The Peculiar Case of the Hyper‐thermostable Pyrimidine Nucleoside Phosphorylase from Thermus thermophilus” (Chembiochem, 2021)
